This is an account of results in US6884600B1, “Protein phosphatase-1 catalytic subunit interactions” (Medical Research Council London, priority 1996, dated 2005).

In experiment [1] the target is T1, myosin (Gallus gallus, UniProt P10587).
T1 construct: from tissue; host or cells: chicken gizzard
In words: Myosin binding assay (pelleting with myosin). Also on record: species or system chicken. Particulars: myosin 1 μM, 15 min 0° C. As for the experimental part: The PP1 catalytic subunit (PP1c), PP1M, or PP1M lacking the M21 subunit, PP1M(ΔM21), each at 30 nM, were incubated for 15 min at 0° C. with 1 μM myosin and centrifuged (see Methods of Example 3). […] The results shown are the average (±S.E.M.) for three separate experiments each assayed in duplicate.
(A); PP1M, M110-(M1-S477) and GST-M110-(M377-K976), each at 30 nM were incubated for 15 min at 0° C. with 1 μM myosin and centrifuged. The supernatants (S), resuspended pellets (P) and the suspension before centrifugation (T, total) were electrophoresed on 12% SDS/polyacrylamide gels, transferred to nitrocellulose and immunoblotted with antibodies raised against the PP1M holoenzyme. No protein was pelleted in the absence of myosin (not shown). The positions of the marker proteins myosin heavy chain (200 kDa), glycogen phosphorylase (97 kDa), bovine serum albumin (66 kDa), ovalbumin (43 kDa), carbonic anhydrase (29 kDa) and soybean trypsin inhibitor (20 kDa) are indicated. (B) The experiments were carried out as in (A), except that the M110 fragments and M21 subunit were used at 100 nM, the 8.5 kDa M110-(K933-I1004) fragment was electrophoresed on a 16.5% polyacrylamide gel and immunoblotting was carried out with affinity purified antibodies (see Methods). A small amount of M110-(R714-I1004) pelleted in the absence of myosin. […] No other protein was pelleted in the absence of myosin.
(A); Myosin (1 μM) was mixed with 50 μM, 20 μM or 10 μM M21 subunit to give the molar ratios M21:myosin dimer indicated. After 15 min at 0° C., the solutions were centrifuged and the supernatants (S), resuspended pellets (P) and the suspension before centrifugation (T, total) were electrophoresed on 12% SDS/polyacrylamide gels and stained with Coomassie blue. The positions of the myosin heavy chain (MHC) and the M21 subunit are indicated. The myosin light chains migrate faster than the M21 subunit and are not visible at these loadings.
Myosin binding assays. Myosin (0.5 mg/ml, 1 μM in terms of myosin heavy chains) in 10 mM Hepes pH 7.5, 50 mM KCl, 5 mM MgCl2, 0.1% (by vol) 2-mercaptoethanol, was mixed with PP1M, M21 subunit, or fragments of the M110 and M21 subunits, at the concentrations indicated in figure legends. After incubation for 15 min at 0° C., the solutions were centrifuged for 2 min at 13,000×g, the supernatants removed, and the pellets washed twice in 10 mM Hepes pH 7.5, 50 mM KCl, 5 mM MgCl2, 0.1% (by vol) 2-mercaptoethanol before resuspension in 50 mM Tris-HCl pH 7.5, 0.1 mM EGTA, 0.03% (by mass) Brij 35, 0.6 M NaCl, 0.1% (by vol) 2-mercaptoethanol. Aliquots of the supernatant, the resuspended pellet and the suspension before centrifugation were either assayed for myosin P-light chain phosphatase activity or denatured in SDS and analysed by SDS/polyacrylamide gel electrophoresis.

Experiment [2] deals with M21 subunit. The experiment can be described thus: Far Western blotting: interaction with the M21 subunit. Conditions: probe 0.2 μg/ml. Type of experiment: binding, chicken. As for the experimental part: A) PP1M 5 μg (track 1), 10 μg bacterial extract containing M110-(R714-I1004) (track 2), MBP-M110-(R714-I004) 1 μg (track 3), MBP-M110-(R714-L934) 1 μg (track 4), MBP-M110-(K933-I1004) 1 μg (track 5), MBP 1 μg (track 6), M110-(M1-E309) 2 μg (lane 7) and M110-(M1-S477) 2 μg (track 8) were run on a 12% SDS/polyacrylamide gel and stained with Coomassie Blue. B) same as A) except that 10-fold less protein was electrophoresed and after transfer to nitrocellulose the proteins were probed with digoxigenin-labelled M21 subunit (0.2 μg/ml). C) same as B) except that, after electrophoresis, the proteins were transferred to nitrocellulose and probed with digoxigenin-labelled M21-(M1-L146) (0.2 μg/ml).
A) GST-M21 5 μg (track 1), M21 5 μg (track 2), M21-(M1-L146) 5 μg (track 3), M21-(M1-E110) 20 μg (track 4) and M21-(E110-K186) 5 μg (track 5) were run on 16.5% polyacrylamide gels and stained with Coomassie Blue. The marker proteins ovalbumin (43 kDa) and carbonic anhydrase (29 kDa) are indicated. B) GST-M21 0.5 μg (track 1), M21 0.5 μg (track 2), M21-M1-L146) 0.5 μg (track 3), M21-(M1-E110) 5 μg (track 4) and M21-(E110-K186) 5 μg (track 5) were electrophoresed as in A) and after transfer to nitrocellulose the blots were probed with digoxigenin-labelled MBP-M110-(K933-I1004) (0.2 μg/Ml). C) same as B) except that, after electrophoresis, the proteins were transferred to nitrocellulose and probed with digoxigenin-labelled M21 subunit (0.2 μg/ml).
PP1M (0.5 μAg) was electrophoresed on a 12% SDS/polyacrylamide gel, transferred to nitrocellulose and probed with digoxigenin-labelled M21 subunit (0.2 μg/ml) (track 1) or digoxigenin-labelled M21-(M1-L146) (0.2 μg/ml) (track 2). The positions of the M110 subunit, the M21 subunit and PP1c are marked.
Proteins were labelled with digoxigenin and Far Western analyses carried out as described, except that the digoxigenin-labelled probe was used at a concentration of 0.2 μg/ml instead of 2 μg/ml. SDS/polyacrylamide gel electrophoresis was carried out on 7.5-15% gels according to Laemmli and on 16.5% gels according to Schagger and von Jagow. Protein was estimated according to Bradford.

T1 sequence (P10587 whole entry): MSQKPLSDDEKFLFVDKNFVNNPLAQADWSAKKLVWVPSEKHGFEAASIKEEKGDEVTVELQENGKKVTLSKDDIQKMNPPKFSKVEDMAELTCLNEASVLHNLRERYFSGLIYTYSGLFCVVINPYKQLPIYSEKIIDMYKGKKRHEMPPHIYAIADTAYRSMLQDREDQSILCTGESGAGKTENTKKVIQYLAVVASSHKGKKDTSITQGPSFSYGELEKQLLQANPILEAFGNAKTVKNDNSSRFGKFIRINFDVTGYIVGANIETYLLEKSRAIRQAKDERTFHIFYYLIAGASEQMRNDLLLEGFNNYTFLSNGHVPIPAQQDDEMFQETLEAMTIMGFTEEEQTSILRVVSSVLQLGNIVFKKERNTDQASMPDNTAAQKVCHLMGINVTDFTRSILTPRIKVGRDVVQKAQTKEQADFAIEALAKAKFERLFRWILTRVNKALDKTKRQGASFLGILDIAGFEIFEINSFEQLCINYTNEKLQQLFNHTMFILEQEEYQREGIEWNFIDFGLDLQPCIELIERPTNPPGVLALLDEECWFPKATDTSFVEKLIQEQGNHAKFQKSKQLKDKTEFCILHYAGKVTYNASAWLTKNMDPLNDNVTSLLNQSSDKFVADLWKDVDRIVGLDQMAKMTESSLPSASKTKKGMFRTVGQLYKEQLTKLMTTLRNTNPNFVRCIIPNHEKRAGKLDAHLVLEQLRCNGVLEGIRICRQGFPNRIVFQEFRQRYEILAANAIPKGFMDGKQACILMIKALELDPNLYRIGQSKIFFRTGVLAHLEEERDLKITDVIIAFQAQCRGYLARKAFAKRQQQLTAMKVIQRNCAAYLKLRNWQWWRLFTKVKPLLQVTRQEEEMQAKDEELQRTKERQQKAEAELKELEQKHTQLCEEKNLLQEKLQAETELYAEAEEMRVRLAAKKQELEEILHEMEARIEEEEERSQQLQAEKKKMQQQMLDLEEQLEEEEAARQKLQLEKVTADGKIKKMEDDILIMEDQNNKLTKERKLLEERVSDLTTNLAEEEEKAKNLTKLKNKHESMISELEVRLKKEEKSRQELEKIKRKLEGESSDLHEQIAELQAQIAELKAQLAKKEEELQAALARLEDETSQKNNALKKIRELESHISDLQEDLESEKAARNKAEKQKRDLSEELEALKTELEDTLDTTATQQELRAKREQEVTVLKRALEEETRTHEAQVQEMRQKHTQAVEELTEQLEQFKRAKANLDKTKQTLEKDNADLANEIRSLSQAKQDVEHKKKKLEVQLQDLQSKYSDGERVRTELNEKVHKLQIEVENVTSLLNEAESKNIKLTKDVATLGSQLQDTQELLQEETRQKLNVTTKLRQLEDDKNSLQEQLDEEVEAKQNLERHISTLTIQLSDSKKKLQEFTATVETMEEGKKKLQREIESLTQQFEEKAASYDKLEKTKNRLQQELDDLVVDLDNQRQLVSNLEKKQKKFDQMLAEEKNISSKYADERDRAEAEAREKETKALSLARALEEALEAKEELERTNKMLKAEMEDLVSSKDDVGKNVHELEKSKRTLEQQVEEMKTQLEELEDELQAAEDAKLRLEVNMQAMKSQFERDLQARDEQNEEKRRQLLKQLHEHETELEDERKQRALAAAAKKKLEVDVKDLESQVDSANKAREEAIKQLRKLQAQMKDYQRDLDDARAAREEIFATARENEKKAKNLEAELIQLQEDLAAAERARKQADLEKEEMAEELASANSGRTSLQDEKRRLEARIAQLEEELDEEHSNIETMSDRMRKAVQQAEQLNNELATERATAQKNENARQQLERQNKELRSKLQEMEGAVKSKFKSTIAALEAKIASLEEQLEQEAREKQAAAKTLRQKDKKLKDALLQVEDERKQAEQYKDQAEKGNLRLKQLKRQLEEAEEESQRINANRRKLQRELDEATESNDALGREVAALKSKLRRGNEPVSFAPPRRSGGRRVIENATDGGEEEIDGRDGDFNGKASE
T1 sequence (P02612 whole entry partner): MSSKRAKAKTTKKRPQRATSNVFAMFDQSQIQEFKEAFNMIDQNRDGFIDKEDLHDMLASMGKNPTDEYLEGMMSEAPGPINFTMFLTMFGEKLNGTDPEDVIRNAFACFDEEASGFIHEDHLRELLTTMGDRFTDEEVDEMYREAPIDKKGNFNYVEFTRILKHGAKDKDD
T1 sequence (P02607 whole entry partner): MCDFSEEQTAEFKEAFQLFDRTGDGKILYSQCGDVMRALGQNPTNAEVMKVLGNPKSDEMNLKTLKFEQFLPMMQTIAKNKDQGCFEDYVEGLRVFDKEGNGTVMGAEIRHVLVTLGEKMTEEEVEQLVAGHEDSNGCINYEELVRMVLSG

B1: GST-M21: GST fusion of the chicken gizzard M21 subunit (M1-K186) (protein)
chain: MSSLFTRSKEYTRSRKSQSDSPPSSPSPIAKTLRHERLSRLEAATTPATSDSYSDRASSRSSAYSRRENRLAALSSRAEEESNRDYKKLYESALSENQKLKSKLQEAQLELADIKSKLEKAAQQKHEKTSDRSSMLEMEKREKRALERKLSEMEEEMKILTELKSDNQRLKDENGALIRVISKLSK
modifications: left off: a dimerising Fc or GST; small tags and cut ends
As for B1, the binding to myosin entry in experiment [1] was “bound to myosin”.

B2: GST-M110-(M377-K976): GST fusion of the C-terminal 600 residues of the M110 subunit from rat aorta (protein)
chain: MASVTNAHTASTQAAPAAVTTPTLSSNQGTPTSPVKKFPTSTTKISPKEEERKDESPASWRLGLRKTGSYGALAEITASKEAQKEKDTAGVIRSASSPRLSSSLDNKEKEKDNKGTRLAYVAPTIPRRLGSTSDIEEKENRESSNLRTSSSYTRRKWEDDLKKNSSINEGSTYHRSTSNRLWAEDSTEKEKDSAPTAATILVAPTVVSAAASSTTALTTTTAGTLSSTSEVRERRRSYLTPVRDEESESQRKARSRQARQSRRSTQGVTLTDLQEAEKTIGRSRSTRTREQENEEKDKEEKEKQDKEKQEEKKESEVSREDEYKQKYSRTYDETYARYRPVSTSSSSTPSSSSLSTLGSSLYASSQLNRPNSLVGITSAYSRGLTKDNEREGEKKEEEKEGEDKSQPKSIRERRRPREKRRSTGVSFWTQDSDENEQERQSDTEDGSSKRDTQTDSVSRYDSSSTSSSDRYDSLLGRSASYSYLEERKPYGSRLEKDDSTDFKKLYEQILAENEKLKAQLHDTNMELTDLKLQLEKATQRQERFADRSLLEMEKRERRALERRISEMEEELKMLPDLKADNQRLKDENGALIRVISKLSK
modifications: left off: a dimerising Fc or GST
notes: GST fusion of the C-terminal 600 residues of the M110 subunit from rat aorta
For B2, in experiment [1], the binding to myosin entry is “bound to myosin”.

B3: M110-(R714-I1004): C-terminal 291 residues of the chicken gizzard M110 subunit (protein)
chain: RSTRTREQENEEKEKEEKEKQDKEKQEEKKESETKDDDYRQRYSRTVEEPYHRYRPTSTSTSTSSTSSLSTSTSSLSSSSQLNRPNSLIGITSAYSRSGTKESEREGGKKEEEKEEDKSQPKSIRERRRPREKRRSTGVSFWTQDSDENEQEHQSDSEEGTNKKETQSDSLSRYDTGSLSVSSGDRYDSAQGRSGSQSYLEDRKPYCSRLEKEDSTDFKKLYEQILAENEKLKAQLHDTNMELTDLKLQLEKTTQRQERFADRSLLEMEKRVSGKSQYLLGGKKSSRKKDI
As to B3, the “recognised by digoxigenin-labelled M21 subunit in Far Western blotting” value (“recognised … in Far Western blotting” for short) in experiment [2] is listed as “recognised”. In addition, the binding to myosin result in experiment [1] is recorded as “bound to myosin”.

B4: complex between GST-M21 and M110-(R714-I1004): complex purified on glutathione-Sepharose from GST-M21 mixed with bacterial extract expressing M110-(R714-I1004) (protein)
GST-M21 (M21 part): MSSLFTRSKEYTRSRKSQSDSPPSSPSPIAKTLRHERLSRLEAATTPATSDSYSDRASSRSSAYSRRENRLAALSSRAEEESNRDYKKLYESALSENQKLKSKLQEAQLELADIKSKLEKAAQQKHEKTSDRSSMLEMEKREKRALERKLSEMEEEMKILTELKSDNQRLKDENGALIRVISKLSK
M110-(R714-I1004): RSTRTREQENEEKEKEEKEKQDKEKQEEKKESETKDDDYRQRYSRTVEEPYHRYRPTSTSTSTSSTSSLSTSTSSLSSSSQLNRPNSLIGITSAYSRSGTKESEREGGKKEEEKEEDKSQPKSIRERRRPREKRRSTGVSFWTQDSDENEQEHQSDSEEGTNKKETQSDSLSRYDTGSLSVSSGDRYDSAQGRSGSQSYLEDRKPYCSRLEKEDSTDFKKLYEQILAENEKLKAQLHDTNMELTDLKLQLEKTTQRQERFADRSLLEMEKRVSGKSQYLLGGKKSSRKKDI
modifications: left off: a dimerising Fc or GST; small tags and cut ends
On to B4, for which the binding to myosin result in experiment [1] is listed as “bound quantitatively to myosin”.

B5: M110-(M1-S477): rat aorta M110 fragment, residues 1-477, GST tag removed (protein, UniProt Q10728 1-477, looked up, fragment)
chain: MKMADAKQKRNEQLKRWIGSETDLEPPVVKRQKTKVKFDDGAVFLAACSSGDTDEVLKLLHRGADINYANVDGLTALHQACIDDNVDMVKFLVENGANINQPDNEGWIPLHAAASCGYLDIAEFLIGQGAHVGAVNSEGDTPLDIAEEEAMEELLQNEVNRQGVDIEAARKEEERIMLRDARQWLNSGHISDVRHAKSGGTALHVAAAKGYTEVLKLLIQAGYDVNIKDYDGWTPLHAAAHWGKEEACRILVDNLCDMETVNKVGQTAFDVADEDILGYLEELQKKQNLLHSEKRDKKSPLIESTANMENNQPQKTFKNKETLIIEPEKNASRIESLEQEKADEEEEGKKDESSCSSEEDEEDDSESEAETDKTKPMASVTNAHTASTQAAPAAVTTPTLSSNQGTPTSPVKKFPTSTTKISPKEEERKDESPASWRLGLRKTGSYGALAEITASKEAQKEKDTAGVIRSASSPRLS
Consider B5, for which the “recognised … in Far Western blotting” value in experiment [2] is reported as “not”. Moreover, the binding to myosin entry in experiment [1] is on record as “did not bind to myosin”.

B6: M110-(K933-I1004): C-terminal 72 residues of the chicken gizzard M110 subunit (protein, UniProt Q90623 933-1004, looked up, fragment)
chain: KLYEQILAENEKLKAQLHDTNMELTDLKLQLEKTTQRQERFADRSLLEMEKRVSGKSQYLLGGKKSSRKKDI
For the molecule B6, the “recognised … in Far Western blotting” value in experiment [2] was “recognised”. Further, the binding to myosin result in experiment [1] is “did not bind to myosin”.
